From US20210388081A1 (Memorial Sloan Kettering, published 2021)

T1: Fc Receptor-like 5 (FcRL5), full length, overexpressed on 3T3 or Raji cells (human, UniProt Q96RD9 16-977)
T1 construct: also called 3T3-FcRL5
T1 sequence: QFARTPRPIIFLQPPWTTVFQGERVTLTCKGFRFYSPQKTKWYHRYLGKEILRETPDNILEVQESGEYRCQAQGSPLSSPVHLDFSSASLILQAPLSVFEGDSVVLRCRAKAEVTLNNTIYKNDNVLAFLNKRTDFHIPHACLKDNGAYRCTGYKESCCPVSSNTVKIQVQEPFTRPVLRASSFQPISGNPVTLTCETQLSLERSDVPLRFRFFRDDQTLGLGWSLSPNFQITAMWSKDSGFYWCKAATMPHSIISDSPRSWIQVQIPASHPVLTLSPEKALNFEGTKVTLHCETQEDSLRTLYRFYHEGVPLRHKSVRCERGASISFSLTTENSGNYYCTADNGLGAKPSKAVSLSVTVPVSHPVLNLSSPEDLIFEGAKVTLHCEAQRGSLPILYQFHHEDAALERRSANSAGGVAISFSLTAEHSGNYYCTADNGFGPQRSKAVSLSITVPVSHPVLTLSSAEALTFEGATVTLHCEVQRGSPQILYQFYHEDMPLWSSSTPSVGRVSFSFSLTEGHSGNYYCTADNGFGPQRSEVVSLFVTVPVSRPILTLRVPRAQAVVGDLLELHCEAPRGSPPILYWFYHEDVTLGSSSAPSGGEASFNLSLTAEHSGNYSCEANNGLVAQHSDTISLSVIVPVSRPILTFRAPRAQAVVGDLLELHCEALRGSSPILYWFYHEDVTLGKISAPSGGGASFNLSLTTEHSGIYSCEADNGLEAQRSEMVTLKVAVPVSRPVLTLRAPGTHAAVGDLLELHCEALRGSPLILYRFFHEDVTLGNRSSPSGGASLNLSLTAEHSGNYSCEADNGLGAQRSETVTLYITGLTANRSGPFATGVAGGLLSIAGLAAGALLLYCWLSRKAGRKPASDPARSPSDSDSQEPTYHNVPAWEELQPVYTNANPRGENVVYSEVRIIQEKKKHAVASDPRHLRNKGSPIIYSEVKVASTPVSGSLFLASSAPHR

T2: FcRL2, overexpressed on 3T3 cells (UniProt Q96LA5 20-508, limits assumed)
T2 construct: whole, on cells
T2 sequence (looked up): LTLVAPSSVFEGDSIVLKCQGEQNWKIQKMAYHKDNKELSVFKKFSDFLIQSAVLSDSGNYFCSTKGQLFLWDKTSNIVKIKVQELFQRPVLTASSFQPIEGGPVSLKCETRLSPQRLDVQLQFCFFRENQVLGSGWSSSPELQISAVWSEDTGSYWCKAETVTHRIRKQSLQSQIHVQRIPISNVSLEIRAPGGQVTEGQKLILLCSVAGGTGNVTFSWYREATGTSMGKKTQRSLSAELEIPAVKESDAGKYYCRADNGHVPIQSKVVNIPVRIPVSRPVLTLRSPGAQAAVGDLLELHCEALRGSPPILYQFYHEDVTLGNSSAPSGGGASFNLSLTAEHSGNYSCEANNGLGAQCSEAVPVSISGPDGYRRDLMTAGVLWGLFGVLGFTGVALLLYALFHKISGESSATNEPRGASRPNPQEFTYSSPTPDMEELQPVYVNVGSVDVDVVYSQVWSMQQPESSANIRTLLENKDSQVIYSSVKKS

T3: FcRL6, overexpressed on 3T3 cells (UniProt Q6DN72 20-434, limits assumed)
T3 construct: whole, on cells
T3 sequence (looked up): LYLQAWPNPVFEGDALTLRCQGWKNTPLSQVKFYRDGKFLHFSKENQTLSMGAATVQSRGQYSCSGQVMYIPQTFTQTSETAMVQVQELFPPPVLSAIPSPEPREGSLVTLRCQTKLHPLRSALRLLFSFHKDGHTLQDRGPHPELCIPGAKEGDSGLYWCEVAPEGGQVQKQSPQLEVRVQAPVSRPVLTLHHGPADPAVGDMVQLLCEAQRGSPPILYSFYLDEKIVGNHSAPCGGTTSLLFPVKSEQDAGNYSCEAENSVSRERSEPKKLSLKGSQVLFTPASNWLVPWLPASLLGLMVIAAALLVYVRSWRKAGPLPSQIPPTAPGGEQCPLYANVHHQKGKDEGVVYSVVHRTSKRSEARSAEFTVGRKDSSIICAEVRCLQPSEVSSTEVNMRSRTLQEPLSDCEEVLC

T4: FcRL1, overexpressed on 3T3 cells (UniProt Q96LA6 17-429, limits assumed)
T4 construct: whole, on cells
T4 sequence (looked up): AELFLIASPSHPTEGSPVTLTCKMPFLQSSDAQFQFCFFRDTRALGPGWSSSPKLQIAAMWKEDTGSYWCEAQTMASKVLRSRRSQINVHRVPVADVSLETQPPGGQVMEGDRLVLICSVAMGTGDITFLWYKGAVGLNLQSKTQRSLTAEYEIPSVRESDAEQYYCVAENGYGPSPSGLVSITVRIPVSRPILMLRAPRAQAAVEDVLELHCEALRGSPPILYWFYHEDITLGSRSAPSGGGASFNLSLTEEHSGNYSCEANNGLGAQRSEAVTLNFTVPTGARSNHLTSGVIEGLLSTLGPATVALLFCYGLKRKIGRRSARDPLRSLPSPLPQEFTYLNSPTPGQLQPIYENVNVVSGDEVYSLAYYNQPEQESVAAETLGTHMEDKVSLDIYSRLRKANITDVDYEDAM


Experiments:
[1] = target: T1, Fc Receptor-like 5 (FcRL5), full …; assay: phage clone screening on cells
Procedure: Once selected, positive scFv clones are further tested for their binding to FcRL5 (e.g., human FcRL5) on live 3T3 cell surfaces by flow cytometry. Briefly, phage clones are incubated with 3T3 cells over-expressing FcRL5. The cells are washed and then incubated with a mouse anti-M13 coat protein mAb. Cells are washed again and labeled with a PE-horse anti-mouse Ig prior to flow cytometry.
Phage′ display against FcRL5 was performed to enrich for scFv phage clones that bind to FcRL5 specifically. Screening was carried out on FcRL5 overexpressing 3T3 cells or 3T3 cells expressing FcRL1, 2, 3, 4 or 6 as a negative control (FIG. 2).

[2] = target: T2, FcRL2, overexpressed on 3T3 cells; assay: phage clone on 3T3-FcRL2 cells
SLAMF9 protein = SLAMF9 protein (UniProt Q96A28 19-236, limits assumed); assay: phage clone on SLAMF9 protein
[3] = target: T3, FcRL6, overexpressed on 3T3 cells; assay: phage clone on 3T3-FcRL6 cells
[4] = target: T4, FcRL1, overexpressed on 3T3 cells; assay: phage clone on 3T3-FcRL1 cells

Sequence of SLAMF9 protein (Q96A28 19-236 limits assumed): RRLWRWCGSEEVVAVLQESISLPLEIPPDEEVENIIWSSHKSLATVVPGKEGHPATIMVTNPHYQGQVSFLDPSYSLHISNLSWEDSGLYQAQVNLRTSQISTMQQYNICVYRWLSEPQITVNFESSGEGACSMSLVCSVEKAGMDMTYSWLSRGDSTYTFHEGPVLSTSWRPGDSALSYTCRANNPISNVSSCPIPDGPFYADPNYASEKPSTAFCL

| Binder | binding result [1] | binding result [2] | binding result (SLAMF9 protein) | binding result [3] | binding result [4] |
| --- | --- | --- | --- | --- | --- |
| ET200-011 (scFv, screened as phage clone; entry is VL-linker-VH-His tag-HA tag) scFv: QSVVTQPPSVSAAPGQRVTISCSGSSSNISIYDVSWYQQLPGTAPKLLIYGNNKRPSGIADRFSGSTSGTSATLGITGLQTGDEADYYCGTWDDSLSGGVFGGGTKLTVLGSRGGGGSGGGGSGGGGSLEMAQMQLVQSGAEVKKPGSSVKVSCEASGGTLSSYAINWVRQAPGQGLEWMGGIIPMFGTAHYAQKFQGRVTITADESTKTAYMELSSLRSEDTAVYYCARGVHYASFDHWGQGTLVTVSSTSGQAGQHHHHHHGAYPYDVPDYAS | binds | no binding | no binding | no binding | no binding |
| ET200-012 (scFv, screened as phage clone; entry is VL-linker-VH-His tag-HA tag) scFv: QSVLTQPPSVSAAAGQKVTISCSGSDSNIGNNYVSWYQHLPGTAPKLLIYDVKNRPSGIPDRFSGSKSGSSATLGIAGLQPGDEADYYCGTWDSRLDAYVFGTGTKVTVLGSRGGGGSGGGGSGGGGSLEMAQMQLVQSGAEVKKPGASVKVSCKTSGFPFNIFGITWVRQAPGQGLEWMGWISGYNGNTDYPQKFQGRVTMSTDTSTSTAYMELRNLKSDDTAVYYCARGAYGGMDTWGQGTLVTVSSTSGQAGQHHHHHHGAYPYDVPDYAS | binds | no binding | no binding | no binding | no binding |
| ET200-013 (scFv, screened as phage clone; entry is VL-linker-VH-His tag-HA tag) scFv: QSVVTQPPSVSGAPGQRVTISCTGSTSNIGAGYDVHWYQQLPGTAPKLLIYTNNFRPSGVPDRFSASKSGTSASLAITGLQAEDEADYYCGTWDSSLSAVVFGGGTKLTVLGSRGGGGSGGGGSGGGGSLEMAEVQLVESGTEVKKPGASVKVSCKASGYMFTSYGLNWVRQAPGQGLEWMGWISANNGKTNYAKKFQDRVTMTRDTSTSTGYMELRSLRSDDTAVYYCARHIGGSYFDRWGQGTLVTVSSTSGQAGQHHHHHHGAYPYDVPDYAS | binds | no binding | no binding | no binding | no binding |
| ET200-014 (scFv, screened as phage clone; entry is VL-linker-VH-His tag-HA tag) scFv: SYVLTQPPSVSVAPGKTARITCGGNNIGSKSVHWYQQKPGQAPVLVIYYDSDRPSGIPERFSGSNSGNTATLTISRVEAGDEADYYCQVWDSSSDHYVFGTGTKVTVLGSRGGGGSGGGGSGGGGSLEMAEVQLVETGGGLVQPGGSLRLSCAASGFTFSSYAMSWVRQAPGKGLEWVSAISGSDGSTYYADSVKGRFTISRDNSKNTLYLQMNSLRDEDTAVYYCARSHEANLVGDWWGQGTLVTVSSTSGQAGQHHHHHHGAYPYDVPDYAS | binds | no binding | no binding | no binding | no binding |
| ET200-015 (scFv, screened as phage clone; entry is VL-linker-VH-His tag-HA tag) scFv: QSVVTQPPSVSVAPGKTARITCGGNNIGSKSVHWYQQKPGQAPVLVIYYDSDRPSGIPERFSGSNSGNTATLTISRVEAGDEADYYCQVWDSSSDVVFGGGTKLTVLGSRGGGGSGGGGSGGGGSLEMAEVQLVQSGAEVKKPGASVKVSCKASGYTFTSYGISWVRQAPGQGLEWMGWISAYNGNTNYAQKLQGRVTMTTDTSTSTAYMELRSLRSDDTAVYYCARWGGFGAVDHWGQGTLVTVSSTSGQAGQHHHHHHGAYPYDVPDYAS | binds | no binding | no binding | no binding | no binding |
| ET200-016 (scFv, screened as phage clone; entry is VL-linker-VH-His tag-HA tag) scFv: SSELTQDPAVSVALGQTVKITCQGDSLTDYHATWYQQKPGQAPVAVIYATNNRPTGIPDRFSGSSSGNTASLTITGAQAEDEADYYCNSRDSGTDEVLFGGGTKLTVLGSRGGGGSGGGGSGGGGSLEMAEVQLVETGGGLVKPGGSLRLSCAASGFTFSSYSMNWVRQAPGKGLEWVSSISSSSSYIYYADSVKGRFTISRDNAKNSLYLQMNSLRAEDTAVYYCARGQGYDYWGQGTLVTVSSTSGQAGQHHHHHHGAYPYDVPDYAS | binds | no binding | no binding | no binding | no binding |
| ET200-017 (scFv, screened as phage clone; entry is VL-linker-VH-His tag-HA tag) scFv: SYVLTQPPSVSVAPGKTARITCGGNNIGSKSVHWYQQKPGQAPVLVVYDDSDRPSGIPERFSGSNSGNTATLSISRVEAGDEADYYCQVWDSSSDHTVFGTGTKVTVLGSRGGGGSGGGGSGGGGSLEMAQVQLQQWGAGLLKPSETLSLTCAVYGGSFSGYYWSWIRQPPGKGLEWIGEINHSGSTNYNPSLKSRVTISVDTSKNQFSLKLSSVTAADTAVYYCARYYPGMDMWGQGTLVTVSSTSGQAGQHHHHHHGAYPYDVPDYAS | binds | no binding | no binding | no binding | no binding |
| ET200-018 (scFv, screened as phage clone; entry is VL-linker-VH-His tag-HA tag) scFv: QAVLTQPPSTSGTPGQRVTISCSGSSSNIGRNGVNWYQQLPGAAPKVLIYNDNQRPSGVPDRVSGSQSGSSGTLAIDGLRSEDEADYYCAAWDDSLHGVVFGGGTKLTVLGSRGGGGSGGGGSGGGGSLEMAQVQLVQSGAEVKKPGASVKVSCKVSGYTLNELSMHWVRQAPGKGLEWMGGFDPEDGETIYAQKFQGRVTMTEDTSTDTAYMELSSLRSEDTAVYYCARGGYGDSWGQGTLVTVSSTSGQAGQHHHHHHGAYPYDVPDYAS | binds | no binding | no binding | no binding | no binding |
